Data reported in patent publication US20250304644A1, “PEPTIDES TRIPLE AGONISTS OF GIP, GLP-1 AND GLP-2” (BAINAN BIOTECH APS, priority 2021, published 2025).
*1 amine or outer side, *2 acyl side, *3 side chain or, on linkers, in order; H or OH if unused. Where no end group is shown, it is not given here. Side-chain parts run from the residue outwards. The star is where a group is joined. C18 diacid = O=C(O)CCCCCCCCCCCCCCCCC(=O)*; γGlu = O=C(O)[C@H](CCC(=O)[*:2])N[*:1]; AEEA = NCCOCCOCC(=O)O

T1: human SNAP-tagged GLP-2R (human, UniProt O95838 1-553, SNAP tag labeled with Tag-Lite SNAP-Lumi4-Tb)
T1 sequence (looked up): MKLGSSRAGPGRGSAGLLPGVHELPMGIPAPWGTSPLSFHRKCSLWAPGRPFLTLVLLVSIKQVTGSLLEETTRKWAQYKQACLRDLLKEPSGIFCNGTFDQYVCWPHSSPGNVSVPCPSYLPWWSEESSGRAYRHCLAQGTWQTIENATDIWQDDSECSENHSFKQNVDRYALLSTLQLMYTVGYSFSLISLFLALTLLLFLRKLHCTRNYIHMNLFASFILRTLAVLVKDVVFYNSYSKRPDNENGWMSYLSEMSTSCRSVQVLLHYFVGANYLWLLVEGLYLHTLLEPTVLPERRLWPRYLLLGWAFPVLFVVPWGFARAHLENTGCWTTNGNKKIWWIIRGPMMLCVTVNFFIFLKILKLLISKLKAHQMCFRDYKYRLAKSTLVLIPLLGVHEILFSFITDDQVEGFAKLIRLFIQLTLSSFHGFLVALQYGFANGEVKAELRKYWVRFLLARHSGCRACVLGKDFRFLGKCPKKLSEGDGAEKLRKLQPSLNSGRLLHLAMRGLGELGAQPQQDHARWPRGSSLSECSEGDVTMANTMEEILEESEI

T2: human GIPR (glucose-dependent insulinotropic polypeptide receptor) (human, UniProt P48546 22-466)
T2 sequence (looked up): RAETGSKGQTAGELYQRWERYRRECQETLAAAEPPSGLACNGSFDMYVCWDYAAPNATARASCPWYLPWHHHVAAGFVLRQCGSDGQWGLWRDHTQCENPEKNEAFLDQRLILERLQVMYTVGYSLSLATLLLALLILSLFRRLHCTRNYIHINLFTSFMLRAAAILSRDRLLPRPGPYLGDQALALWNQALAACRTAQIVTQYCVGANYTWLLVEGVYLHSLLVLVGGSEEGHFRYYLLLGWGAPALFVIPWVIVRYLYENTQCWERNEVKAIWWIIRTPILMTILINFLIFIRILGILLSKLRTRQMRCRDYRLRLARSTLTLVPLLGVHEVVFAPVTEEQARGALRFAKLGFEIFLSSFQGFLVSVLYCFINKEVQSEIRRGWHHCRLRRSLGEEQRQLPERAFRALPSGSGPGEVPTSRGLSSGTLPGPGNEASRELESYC

T3: human GLP-2R (glucagon-like peptide-2 receptor) (human, UniProt O95838 1-553)
T3 sequence (looked up): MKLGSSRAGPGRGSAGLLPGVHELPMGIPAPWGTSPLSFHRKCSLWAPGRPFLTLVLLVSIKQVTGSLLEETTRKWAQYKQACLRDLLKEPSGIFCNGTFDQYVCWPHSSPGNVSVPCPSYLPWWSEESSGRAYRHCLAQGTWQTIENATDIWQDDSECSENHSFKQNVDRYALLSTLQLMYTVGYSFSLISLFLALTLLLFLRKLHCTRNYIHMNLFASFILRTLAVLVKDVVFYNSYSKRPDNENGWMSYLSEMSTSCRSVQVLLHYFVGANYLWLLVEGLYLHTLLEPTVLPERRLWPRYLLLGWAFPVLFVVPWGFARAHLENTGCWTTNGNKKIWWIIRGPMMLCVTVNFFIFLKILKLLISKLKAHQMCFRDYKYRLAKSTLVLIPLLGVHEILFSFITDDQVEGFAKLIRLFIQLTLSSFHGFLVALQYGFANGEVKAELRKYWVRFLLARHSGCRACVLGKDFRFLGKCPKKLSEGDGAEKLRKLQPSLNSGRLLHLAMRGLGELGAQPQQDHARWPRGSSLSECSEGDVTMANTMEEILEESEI

T4: Human N-terminally SNAP-tagged GIPR (human, UniProt P48546 22-466, SNAP tag labeled with Tag-Lite SNAP-Lumi4-Tb)
T4 sequence (looked up): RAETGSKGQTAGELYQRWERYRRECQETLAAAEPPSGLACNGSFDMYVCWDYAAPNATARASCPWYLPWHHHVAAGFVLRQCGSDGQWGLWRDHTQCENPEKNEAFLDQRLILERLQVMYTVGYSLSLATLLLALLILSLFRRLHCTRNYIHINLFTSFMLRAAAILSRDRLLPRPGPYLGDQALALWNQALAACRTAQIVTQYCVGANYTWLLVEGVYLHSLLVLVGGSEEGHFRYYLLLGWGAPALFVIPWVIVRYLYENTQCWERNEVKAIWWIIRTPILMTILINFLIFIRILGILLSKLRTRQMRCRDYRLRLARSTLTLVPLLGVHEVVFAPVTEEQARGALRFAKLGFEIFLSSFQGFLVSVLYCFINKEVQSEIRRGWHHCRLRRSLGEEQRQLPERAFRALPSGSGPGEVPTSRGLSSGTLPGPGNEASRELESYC


Legend:
Assay in all cases: cell-based or functional assay
[1] = biological target: T1, human SNAP-tagged GLP-2R
[2] = biological target: T2, human GIPR (glucose-dependent …)
[3] = biological target: T3, human GLP-2R (glucagon-like peptide-2 …)
[4] = biological target: human GLP-1R (glucagon-like peptide-1 receptor) (human, UniProt P43220 24-463)
[5] = biological target: T4, Human N-terminally SNAP-tagged GIPR

Binder | Absolute hGLP-2R internalization (AUC) [1] | EC50 (nM) GIPR [2] | Efficacy GIPR [2] | pEC50 GIPR [2] | EC50 (nM) GLP-2R [3] | Efficacy GLP-2R [3] | logEC50 GLP-2R [3] | EC50 (nM) GLP-1R [4] | Efficacy GLP-1R [4] | logEC50 GLP-1R [4] | Absolute hGIPR internalization (AUC) [5] | Relative hGIPR internalization (%) [5]
HADGSFSDEMNTILDNLAARDFINWLIQTKITD (ligand) [hGLP-2] | 48.6 AUC |  |  |  |  |  |  |  |  |  |  | 
HADGTFTSDYSTILDKLAARDFINWLIQTKGKKNDWK([AEEA-AEEA-γGlu-C18 diacid])HNITQ-OH [Compound 25] |  | 0.398 nM | 107 | 9.4 | 7.9 nM | 117 | 8.1 | 0.05 nM | 116 | 10.3 | 13.1 AUC | 35%
